Laboratory results reported in publication PMC5078997, “Diversity-oriented synthetic strategy for developing a chemical modulator of protein–protein interaction” (Nature Communications, 2016).

Molecular target: T1, His-tagged human leucyl-tRNA synthetase (LRS) (human, UniProt Q9P2J5 1-1176)
T1 construct: leucyl-tRNA synthetase (LRS), human; also called His-LRS; human LRS; source: laboratory stocks; purified
Assay: ELISA; His-tagged human LRS coated on the plate (0.5 ng/ul in 100 mM carbonate buffer, pH 9.6, overnight at 4 °C), blocked with 5% BSA in PBS; GST-tagged human RagD added together with each compound for 3 h; detected with anti-GST and HRP-conjugated secondary antibody, TMB, absorbance at 450 nm
Conditions: both partners purified

T1 sequence (Q9P2J5 whole entry): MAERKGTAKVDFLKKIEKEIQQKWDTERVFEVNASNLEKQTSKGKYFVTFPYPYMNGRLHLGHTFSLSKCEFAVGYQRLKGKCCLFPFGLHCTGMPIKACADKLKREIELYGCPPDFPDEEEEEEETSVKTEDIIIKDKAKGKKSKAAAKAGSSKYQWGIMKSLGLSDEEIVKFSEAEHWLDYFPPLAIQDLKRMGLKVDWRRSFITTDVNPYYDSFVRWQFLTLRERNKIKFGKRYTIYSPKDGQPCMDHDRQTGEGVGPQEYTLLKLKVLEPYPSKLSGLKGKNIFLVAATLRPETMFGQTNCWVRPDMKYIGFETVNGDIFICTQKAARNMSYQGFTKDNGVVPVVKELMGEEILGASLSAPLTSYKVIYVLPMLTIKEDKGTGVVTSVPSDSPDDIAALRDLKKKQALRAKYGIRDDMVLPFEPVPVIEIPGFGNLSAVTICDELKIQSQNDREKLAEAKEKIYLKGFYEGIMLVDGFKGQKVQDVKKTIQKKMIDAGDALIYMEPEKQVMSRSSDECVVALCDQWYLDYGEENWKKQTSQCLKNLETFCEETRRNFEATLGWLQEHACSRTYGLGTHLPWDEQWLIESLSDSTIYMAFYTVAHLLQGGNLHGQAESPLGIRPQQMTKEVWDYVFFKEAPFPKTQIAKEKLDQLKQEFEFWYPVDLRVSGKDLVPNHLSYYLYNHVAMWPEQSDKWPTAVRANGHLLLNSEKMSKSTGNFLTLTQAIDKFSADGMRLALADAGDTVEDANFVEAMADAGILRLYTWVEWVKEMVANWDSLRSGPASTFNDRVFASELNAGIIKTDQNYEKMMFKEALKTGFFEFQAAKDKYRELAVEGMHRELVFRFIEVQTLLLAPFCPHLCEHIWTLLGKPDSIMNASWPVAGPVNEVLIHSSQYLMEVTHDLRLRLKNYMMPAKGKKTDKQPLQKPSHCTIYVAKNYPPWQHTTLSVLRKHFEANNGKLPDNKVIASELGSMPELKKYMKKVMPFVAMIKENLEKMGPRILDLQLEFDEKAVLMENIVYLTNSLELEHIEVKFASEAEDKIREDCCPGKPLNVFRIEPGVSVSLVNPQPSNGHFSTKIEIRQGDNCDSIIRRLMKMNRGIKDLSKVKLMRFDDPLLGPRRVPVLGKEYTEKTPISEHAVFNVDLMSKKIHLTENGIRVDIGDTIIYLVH

binding result: binds
B1: GST (glutathione-S-transferase)-tagged human Ras-related GTP-binding protein D (RagD) (natural protein, UniProt Q9NQL2 1-400, looked up)
chain: MSQVLGKPQPQDEDDAEEEEEEDELVGLADYGDGPDSSDADPDSGTEEGVLDFSDPFSTEVKPRILLMGLRRSGKSSIQKVVFHKMSPNETLFLESTNKICREDVSNSSFVNFQIWDFPGQIDFFDPTFDYEMIFRGTGALIFVIDSQDDYMEALARLHLTVTRAYKVNTDINFEVFIHKVDGLSDDHKIETQRDIHQRANDDLADAGLEKIHLSFYLTSIYDHSIFEAFSKVVQKLIPQLPTLENLLNIFISNSGIEKAFLFDVVSKIYIATDSTPVDMQTYELCCDMIDVVIDISCIYGLKEDGAGTPYDKESTAIIKLNNTTVLYLKEVTKFLALVCFVREESFERKGLIDYNFHCFRKAIHEVFEVRMKVVKSRKVQNRLQKKKRATPNGTPRVLL
notes: also called GST-tagged RagD; source: laboratory stocks; purified
